Experimental data taken from patent US20240173398A1 (MAX PLANCK GESELLSCHAFT ZUR F RDERUNG DER WISSENSCHAFTEN E V, published 2024).

Target: SARS-CoV-2 S1 334-526 N343D (SARS-CoV-2, UniProt P0DTC2 334-526)
Experiment: co-secretion from Pichia pastoris; biochemical and structural analysis

B1: VHH antibody Re21D01 (VHH)
VHH: QVQLVESGGALVQPGGSLRLSCVASGFTFSSFAMGWYRQAPGKECEWVATITITGGSTNYADSVKGRFTISRDNAKNTVYLQMNSLKPEDTAVYYCNPDPGCRRGQGTQVTVSS
- binding result: binds
